# Measured values published in patent US20210277137A1 (AbbVie / Abbott, published 2021).
# T1: human FcγRIIA (CD32a) on CHO cells (human, UniProt P12318 34-317)
# T1 construct: whole, on cells
# T1 sequence (looked up): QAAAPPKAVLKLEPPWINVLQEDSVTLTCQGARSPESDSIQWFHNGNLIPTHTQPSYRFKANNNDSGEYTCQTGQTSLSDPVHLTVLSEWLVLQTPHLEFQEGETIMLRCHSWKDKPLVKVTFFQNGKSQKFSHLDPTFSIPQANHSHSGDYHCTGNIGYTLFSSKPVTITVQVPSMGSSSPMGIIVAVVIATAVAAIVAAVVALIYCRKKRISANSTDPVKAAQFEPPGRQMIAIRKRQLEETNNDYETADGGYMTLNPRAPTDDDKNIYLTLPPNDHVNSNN
# T2: human FcγRIIB (CD32b) on CHO cells (human, UniProt P31994 43-310)
# T2 construct: whole, on cells
# T2 sequence (looked up): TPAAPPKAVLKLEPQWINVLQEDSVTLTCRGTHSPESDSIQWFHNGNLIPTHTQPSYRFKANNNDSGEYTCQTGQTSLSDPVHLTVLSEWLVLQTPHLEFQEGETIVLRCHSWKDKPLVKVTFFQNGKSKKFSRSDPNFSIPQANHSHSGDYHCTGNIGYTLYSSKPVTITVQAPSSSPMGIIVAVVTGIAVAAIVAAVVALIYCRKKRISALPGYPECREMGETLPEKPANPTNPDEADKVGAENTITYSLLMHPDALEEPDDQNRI
# How the values were obtained:
# human CD40 on cells [1] = target: T3, human CD40 on cells (human, UniProt P25942 21-277); assay: cell-based or functional assay
# [2] = target: soluble form of the extracellular domain of human CD40 (Creative BioMart, cat #CD402221H) (human, UniProt P25942 21-193); assay: SPR (BIAcore T200); antibody captured by anti-Fc; soluble CD40 injected
# Experimental: (§1) CD40 binding kinetics was analyzed by BIAcore assay with a BIAcore T200 instrument. Briefly, a goat anti-mouse Fc antibody (Pierce, cat #31170) or goat anti-human Fc (Pierce, cat #31125) was immobilized on a CM5 sensor chip, followed by capture of the anti-CD40 antibodies on the test surface.
# [3] = target: T4, soluble cynomolgus (cyno) CD40 (Creative BioMart, cat #CD40-8824C) (cynomolgus, UniProt G7PG38 21-193); assay: as above
# T4 construct: extracellular domain; also called Cynomolgus CD40
# Experimental: as §1
# [4] = target: T5, Alexa Fluor 488-conjugated soluble human CD40 protein (human, UniProt P25942 21-193, limits assumed, Alexa Fluor 488 conjugate (sites not given)); assay: flow cytometry: antibody titrated into 1 µg/mL Alexa Fluor 488-conjugated soluble human CD40 on CD40L+ Jurkat cells; half-maximal enhancement of the binding of CD40 to cell-surface CD40L
# T5 construct: also called fluorochrome-conjugated human CD40
# [5] = target: T6, CD40-human Fc (huFc) fusion protein (Creative BioMart) (human, UniProt P25942 21-193); assay: ELISA: antibody titrated into 1 µg/mL CD40-huFc, mixture added to plate coated with HA-tagged CD40L, bound complex detected with HRP anti-human Fc; half-maximal enhancement of the signal of CD40-huFc on CD40L
# T6 construct: bought; also called CD40-huFc; not shown: human Fc
# Excerpt: (§2) After development with TMB (3, 3′, 5, 5′-tetramethylbenzidine) substrate, the plates were read at OD₄₅₀.
# [6] = target: T7, human FcγRI (CD64) on CHO cells (human, UniProt P12314 16-374); assay: flow cytometry on CHO cells stably expressing human FcγRI (CD64), detection with fluorescence-conjugated anti-human F(ab')2 secondary antibody
# T7 construct: whole, on cells
# Experimental: (§3) Increasing amounts of anti-CD40 human IgG₁ antibodies and their Fc variants were incubated with CHO cells stably expressing different human Fcγ receptors, including FcγRI (CD64), FcγRIIA (CD32a), FcγRIIB (CD32b), and FcγRIIIA (CD16) with either F or V polymorphism. The binding was detected with a fluorescence-conjugated anti-human F(ab′)2 specific secondary antibody (Jackson ImmunoResearch).
# [7] = target: T1, human FcγRIIA (CD32a) on CHO cells; assay: flow cytometry on CHO cells stably expressing human FcγRIIA (CD32a), detection with fluorescence-conjugated anti-human F(ab')2 secondary antibody
# Experimental: as §3
# [8] = target: T2, human FcγRIIB (CD32b) on CHO cells; assay: flow cytometry on CHO cells stably expressing human FcγRIIB (CD32b), detection with fluorescence-conjugated anti-human F(ab')2 secondary antibody
# Experimental: as §3
# [9] = target: T8, human FcγRIIIA (CD16) with V polymorphism on CHO cells (human, UniProt P08637 17-254); assay: flow cytometry on CHO cells stably expressing human FcγRIIIA (CD16V), detection with fluorescence-conjugated anti-human F(ab')2 secondary antibody
# T8 construct: whole, on cells; V allotype; also called CD16V
# Experimental: as §3
# [10] = target: T6, CD40-human Fc (huFc) fusion protein …; assay: ELISA: 1 µg/mL CD40-huFc with control huIgG1 on plate coated or not coated with HA-tagged CD40L, detection with HRP anti-human Fc
# Excerpt: as §2
# human CD40 on cells [11] = target: T3, human CD40 on cells; assay: cell-based or functional assay; remark: listed apart in the source
# [12] = target: T6, CD40-human Fc (huFc) fusion protein …; assay: ELISA: CD40-huFc mixed with antibody, binding to plate-bound HA-tagged CD40L
# Excerpt: as §2
# human CD40 on cells [13] = target: T3, human CD40 on cells; assay: cell-based or functional assay; remark: listed apart in the source
# [14] = target: T6, CD40-human Fc (huFc) fusion protein …; assay: competition ELISA: antibody titrated into 1 µg/mL CD40-huFc, mixture added to plate coated with HA-tagged CD40L, bound CD40-huFc detected with HRP anti-human Fc; blocked ligand: CD40L
# Excerpt: as §2
# Chain of soluble form of the extracellular domain of human CD40 (Creative BioMart, cat #CD402221H) (P25942 21-193 limits assumed): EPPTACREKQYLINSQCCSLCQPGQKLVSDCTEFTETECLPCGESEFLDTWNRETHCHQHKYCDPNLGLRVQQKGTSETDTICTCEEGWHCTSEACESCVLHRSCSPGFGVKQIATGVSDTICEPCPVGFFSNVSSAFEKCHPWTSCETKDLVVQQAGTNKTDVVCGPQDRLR
# T6 sequence (P25942 21-193 limits assumed): as above
# T3 sequence (P25942 21-277 limits assumed): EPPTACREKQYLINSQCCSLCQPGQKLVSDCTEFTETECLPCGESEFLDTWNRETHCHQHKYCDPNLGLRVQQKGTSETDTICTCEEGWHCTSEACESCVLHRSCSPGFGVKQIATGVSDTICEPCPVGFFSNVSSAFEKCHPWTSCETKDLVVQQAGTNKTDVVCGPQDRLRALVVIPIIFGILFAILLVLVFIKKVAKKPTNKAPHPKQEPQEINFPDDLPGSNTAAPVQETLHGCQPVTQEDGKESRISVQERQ
# T7 sequence (P12314 16-374): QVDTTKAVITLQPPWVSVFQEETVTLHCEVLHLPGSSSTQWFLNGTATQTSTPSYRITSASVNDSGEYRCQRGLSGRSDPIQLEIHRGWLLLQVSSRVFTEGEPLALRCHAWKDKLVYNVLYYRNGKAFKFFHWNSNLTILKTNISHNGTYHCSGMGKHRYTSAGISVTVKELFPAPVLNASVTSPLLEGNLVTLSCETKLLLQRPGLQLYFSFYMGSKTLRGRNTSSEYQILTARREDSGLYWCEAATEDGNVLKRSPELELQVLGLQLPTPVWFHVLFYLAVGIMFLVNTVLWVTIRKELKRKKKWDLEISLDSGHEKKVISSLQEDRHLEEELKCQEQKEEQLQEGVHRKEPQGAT
# T5 sequence (P25942 21-193 limits assumed): as the sequence (P25942 21-193 limits assumed) above
# T8 sequence (P08637 17-254 F176V): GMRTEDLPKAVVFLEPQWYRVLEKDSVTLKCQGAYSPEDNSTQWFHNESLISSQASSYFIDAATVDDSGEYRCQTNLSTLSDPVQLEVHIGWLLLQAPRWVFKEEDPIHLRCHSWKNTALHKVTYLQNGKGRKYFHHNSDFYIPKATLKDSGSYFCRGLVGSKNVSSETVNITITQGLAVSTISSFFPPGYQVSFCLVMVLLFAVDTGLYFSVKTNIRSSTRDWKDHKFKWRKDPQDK
binder,measurement,setting,value
"Humanized muAb9 A2I (antibody, human IgG1, kappa, human IgG1 V273E/kappa; also called huAb9 A2I; huAb9 A2I (huIgG1 V273E)) heavy: not shown light: DIVMTQTPLSLSVTPGQPASISCRSSQSLENTNGNTFLNWYLQKPGQSPQLLIYRVSNRFSGVPDRFSGSGSGTDFTLKISRVEAEDVGVYYCLQVTHVPFTFGQGTKLEIKRTVAAPSVFIFPPSDEQLKSGTASVVCLLNNFYPREAKVQWKVDNALQSGNSQESVTEQDSKDSTYSLSSTLTLSKADYEKHKVYACEVTHQGLSSPVTKSFNRGEC",NFκB activity EC50; HEK293 blue CD40 reporter cells co-cultured with CHO cells expressing CD16F,human CD40 on cells [1],0.39 nM
same,NFκB activity EC50; HEK293 blue CD40 reporter cells co-cultured with CHO cells expressing CD16V,human CD40 on cells [1],0.3 nM
same,NFκB activity EC50; HEK293 blue CD40 reporter cells co-cultured with CHO cells expressing CD32a,human CD40 on cells [1],0.08 nM
same,NFκB activity EC50; HEK293 blue CD40 reporter cells co-cultured with CHO cells expressing CD32b,human CD40 on cells [1],0.07 nM
same,NFκB activity EC50; HEK293 blue CD40 reporter cells co-cultured with CHO cells expressing CD64,human CD40 on cells [1],0.01 nM
same,NFκB activity EC50; HEK293 blue CD40 reporter cells co-cultured with FcγR negative CHO cells,human CD40 on cells [1],0.72 nM
same,Kd,[2],170 nM
same,koff,[2],0.22 s⁻¹
same,kon,[2],1.3e+06 M⁻¹ s⁻¹
same,Kd,[3],150 nM
same,koff,[3],0.25 s⁻¹
same,EC50 (read off the curve),[4],~4 µg/mL
same,EC50 (read off the curve),[5],~1 µg/mL
"huAb9-5 human IgG1 V273E variant (antibody, also called huAb9-5 V273E) heavy: not shown light: DAVMTQTPLSLSVTPGQPASISCRSSQSLENTNGNTFLNWYLQKPGQSPQLLIYRVSNRFSGVPDRFSGSGSGTDFTLKISRVEAEDVGVYYCLQVTHVPFTFGQGTKLEIKRTVAAPSVFIFPPSDEQLKSGTASVVCLLNNFYPREAKVQWKVDNALQSGNSQESVTEQDSKDSTYSLSSTLTLSKADYEKHKVYACEVTHQGLSSPVTKSFNRGEC",EC50 (read off the curve),[6],~0.5 µg/mL
same,binding result,[7],binds
same,binding result,[8],binds
same,binding result,[9],binds
"huAb9-5 human IgG1 V273Y variant (antibody, also called huAb9-5 V273Y) heavy: not shown light: DAVMTQTPLSLSVTPGQPASISCRSSQSLENTNGNTFLNWYLQKPGQSPQLLIYRVSNRFSGVPDRFSGSGSGTDFTLKISRVEAEDVGVYYCLQVTHVPFTFGQGTKLEIKRTVAAPSVFIFPPSDEQLKSGTASVVCLLNNFYPREAKVQWKVDNALQSGNSQESVTEQDSKDSTYSLSSTLTLSKADYEKHKVYACEVTHQGLSSPVTKSFNRGEC",EC50 (read off the curve),[6],~0.4 µg/mL
same,binding result,[7],binds
same,binding result,[8],binds
"Humanized muAb9 A2V (antibody, human IgG1, kappa, human IgG1 V273E/kappa; also called huAb9 A2V) heavy: not shown light: DVVMTQTPLSLSVTPGQPASISCRSSQSLENTNGNTFLNWYLQKPGQSPQLLIYRVSNRFSGVPDRFSGSGSGTDFTLKISRVEAEDVGVYYCLQVTHVPFTFGQGTKLEIKRTVAAPSVFIFPPSDEQLKSGTASVVCLLNNFYPREAKVQWKVDNALQSGNSQESVTEQDSKDSTYSLSSTLTLSKADYEKHKVYACEVTHQGLSSPVTKSFNRGEC",Kd,[2],170 nM
same,koff,[2],0.26 s⁻¹
same,kon,[2],1.5e+06 M⁻¹ s⁻¹
same,Kd,[3],140 nM
same,koff,[3],0.27 s⁻¹
same,kon,[3],1.9e+06 M⁻¹ s⁻¹
"HA-tagged CD40L (R&D Systems) (ligand, bought; not shown: HA tag) ENSFEMQKGDQNPQIAAHVISEASSKTTSVLQWAEKGYYTMSNNLVTLENGKQLTVKRQGLYYIYAQVTFCSNREASSQAPFIASLCLKSPGRFERILLRAANTHSSAKPCGQQSIHLGGVFELQPGASVFVNVTDPSQVSHGTGFTSFGLLKL",binding result,[10],binds
"AD166.4.4 (antibody, V domains shown, mouse hybridoma monoclonal; also called muAb2) VH: QVQLQQSGAELMKPGASAKLSCKATGYTFTGYWIQWVKQRPGHGLEWIGEILPGGDHTKYNEKFRGKATFTSDTSSNTVYMQLSSLTTEDSAIYYCARVGGDYWGQGTTLTVSS VL: DVVMTQTPLSLPVSLGDQASISCRSSQSLVNSNENTYLHWYLQKPGQSPKLLIYKVFNRYSGVPDRFSGSGSGTDFTLKISRVEAEDLGVYFCFQSTHVPWTFGGGTKLEIK","moDC activation (IL-12p70, pg/mL)",human CD40 on cells [11],0 pg/mL
same,OD450 Ratio,[12],1.28 ratio to isotype control
same,OD450 with anti-CD40 antibody,[12],1.02 OD450
"AD175.14.11 (antibody, V domains shown, mouse hybridoma monoclonal; also called muAb3) VH: EVQLQQSGPELVKPGASVKISCKASGYTFTDYYMNWVKQSHGKSLEWIGDINPNNGGTSYNQKFKGKATLTVDKSSSTAYMELRSLTSEDSAVYYCARRGGLGRGTYALDYWGQGTSVTVSS VL: DIQMTQTTSSLSASLGDRVTISCRASQDISNYLNWYQQKPDGTVKPLIYYTSRLHLGVPSRFSGSGSGTDYSLTISNLEQEDIATYFCQQGNTLPLTFGAGTKLELK","moDC activation (IL-12p70, pg/mL)",human CD40 on cells [11],0 pg/mL
same,OD450 Ratio,[12],0.09 ratio to isotype control
same,OD450 with anti-CD40 antibody,[12],0.068 OD450
"Humanized muAb8 #1 (antibody, V domains shown, human IgG1 constant region (natural variants D356E and L358M) and kappa light chain; also called huAb8-1) VH: EVQLVQSGAEVKKPGSSVKVSCKASGYTFTDYYINWVRQAPGQGLEWIGWIFPGSGSVYCNEQFKGRATLTVDRSTSTAYMELSSLRSEDTAVYFCASSLGKFAYWGQGTLVTVSS VL: DIQMTQSPSSLSASVGDRVTITCKASQSVVTAVAWYQQKPGKSPKLLIYSASNRYTGVPSRFSGSGSGTDFTLTISSLQPEDFATYFCQQYSSYPYTFGGGTKVEIK",Maximal activation (OD655) in HEK293 blue CD40 NFκB reporter cells,human CD40 on cells [13],0.45 OD655
same,"NFκB activation EC50 (SEAP, OD655) in HEK293 blue CD40 NFκB reporter cells",human CD40 on cells [13],0.14 µg/mL
same,IC50 (read off the curve),[14],~0.3 µg/mL
"Humanized muAb8 #3 (antibody, V domains shown, human IgG1 constant region (natural variants D356E and L358M) and kappa light chain; also called huAb8-3) VH: EVQLVQSGAEVKKPGSSVKVSCKASGYTFTDYYINWVRQAPGQGLEWIGWIFPGSGSVYCNEQFKGRVTITVDKSTSTAYMELSSLRSEDTAVYYCASSLGKFAYWGQGTLVTVSS VL: DIQMTQSPSSLSASVGDRVTITCKASQSVVTAVAWYQQKPGKSPKLLIYSASNRYTGVPSRFSGSGSGTDFTLTISSLQPEDFATYFCQQYSSYPYTFGGGTKVEIK",Maximal activation (OD655) in HEK293 blue CD40 NFκB reporter cells,human CD40 on cells [13],0.46 OD655
same,"NFκB activation EC50 (SEAP, OD655) in HEK293 blue CD40 NFκB reporter cells",human CD40 on cells [13],0.07 µg/mL
same,IC50 (read off the curve),[14],~0.3 µg/mL
